Experimental data as given in PMC3797041 (PLoS ONE, 2013).

B1: hybrid DAD (VHH)
VHH: EVQLQASGGGLVQPGGSLRLACQYSGREGTTTVGWFRQSPGKEREFVAAISAAPGTAYYAFYADSVRGRFTTSSDNFKKTAYLQMNGLKPEDTALYYCTEDTWNSVVTGTAADWSQGTQVTVSS
B2: hybrid construct D1A3 (VHH)
VHH: EVQLQASGGGLVQPGGSLRLACQYSGRTFSRAVMGWFRQSPGKEREFVAAISAAPGTAYYAFYADSVRGRFTTSSDNFKKTAYLQMNGLKPEDTALYYCTEDLKMQVAAYMNQRSVDYWSQGTQVTVSS
B3: hybrid antibody C8A3 (VHH)
VHH: EVQLQASGGGLVQGGDSLRLSCAASGRTFSRAVMGWFRQAPGKEREFVSAISAAPGTAYYAFYADSVRGRFTISRDNAKNAVYLQMNSLKPEDTAVYYCAVDLKMQVAAYMNQRSVDYWGQGTQVTVSS
B4: hybrid AAD (VHH)
VHH: EVQLVESGGGLVQAGDSLRLSCTASGRTFSRAVMGWFRQAPGKEREFVAAISAAPGTAYYAFYADSVRGRFSISADSAKNTVYLQMNSLKPEDTAVYYCAADTWNSVVTGTAADWGQGTQVTVSS
B5: hybrid DDA (VHH)
VHH: EVQLQASGGGLVQPGGSLRLACQYSGREGTTTVGWFRQSPGKEREFVAAIRWTDSRTPHTDSRFTTSSDNFKKTAYLQMNGLKPEDTALYYCTEDLKMQVAAYMNQRSVDYWSQGTQVTVSS
B6: hybrid ADD (VHH)
VHH: EVQLQASGGGLVQPGGSLRLACQYSGRTFSRAVMGWFRQSPGKEREFVAAIRWTDSRTPHTDSRFTTSSDNFKKTAYLQMNGLKPEDTALYYCTEDTWNSVVTGTAADWSQGTQVTVSS
B7: hybrid construct A3D1 (VHH)
VHH: EVQLVESGGGLVQAGDSLRLSCTASGREGTTTVGWFRQAPGKEREFVAAIRWTDSRTPHTDSRFSISADSAKNTVYLQMNSLKPEDTAVYYCAADTWNSVVTGTAADWGQGTQVTVSS
B8: hybrid antibody A3C8 (VHH)
VHH: EVQLVESGGGLVQAGDSLRLSCTASGRTLGDYGVAWFRQAPGKEREFVSVISRSTIITDYADSVRGRFSISADSAKNTVYLQMNSLKPEDTAVYYCAVIANPVYATSRNSDDYGHWGQGTQVTVSS

Molecular target: T1, Staphylococcal enterotoxin B (Staphylococcus aureus, strain , UniProt P01552)
T1 construct: source: bought: Toxin Technologies
T1 sequence (P01552 28-266): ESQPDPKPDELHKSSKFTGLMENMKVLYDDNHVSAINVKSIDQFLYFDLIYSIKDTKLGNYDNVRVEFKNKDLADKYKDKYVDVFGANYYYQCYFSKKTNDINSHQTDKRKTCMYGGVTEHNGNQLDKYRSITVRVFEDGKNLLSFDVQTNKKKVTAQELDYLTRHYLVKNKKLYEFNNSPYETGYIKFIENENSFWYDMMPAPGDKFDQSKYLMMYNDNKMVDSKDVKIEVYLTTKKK
Assay: SPR
Conditions: both partners purified

Binder | Kd [nM] | binding result
B1 | 20 | –
B2 | 0.56 | –
B3 | 2.7 | –
B4 | 12 | –
B5 | – | no binding
B6 | – | no binding
B7 | – | no binding
B8 | – | no binding
